# In paper PMC4200520:
# Columns and labels:
# [1] = target: TD4, minimal TACC domain (TD) fragment of XTACC3 (Xenopus); experiment: SEC-MALS; TD4 with saturating concentrations of pCt; Superdex 200 10/300 GL, 20 mM Tris/HCl, 150 mM NaCl, 0.25 mM TCEP, pH 8.0
# [2] = target: TD4, minimal TACC domain (TD) fragment of XTACC3 (Xenopus); experiment: ITC; TD4 (10–20 μM) in the cell, peptide (400–500 μM) in the syringe; 25 °C; 20 mM HEPES pH 7.5, 150 mM NaCl, 0.25 mM TCEP; one-site model
# [3] = target: TD4, minimal TACC domain (TD) fragment of XTACC3 (Xenopus); experiment: SPR; TD4 (50 μg/ml) amine-coupled to a CM5 chip, peptides pCt or pCt_KD as analytes 10–250 μM; BIAcore X100, 20 °C, HBS (100 mM HEPES, 150 mM NaCl, 0.05% P20, pH 7.4); steady-state fit, single-site model
binder,measurement,setting,value
"STNIDDLKKRLERIKS [pCt, synthetic peptide of XMAP-Ct residues 46-61]",stoichiometry N (pCt per TD4 dimer),[1],4
same,Kd,[2],11 µM
same,stoichiometry N,[2],0.5 TD4:pCt
same,Kd,[3],30 µM
